This note sets out measurements from article doi:10.1101/2024.12.17.628619 (bioRxiv, 2024).

B1: MBP-AMBRA1^WD40 (residues M1-N204 directly fused to S853-G1044), wild type (domain or fragment, human, UniProt Q9C0C7 1-204, looked up)
chain: MKVVPEKNAVRILWGRERGARAMGAQRLLQELVEDKTRWMKWEGKRVELPDSPRSTFLLAFSPDRTLLASTHVNHNIYITEVKTGKCVHSLIGHRRTPWCVTFHPTISGLIASGCLDGEVRIWDLHGGSESWFTDSNNAIASLAFHPTAQLLLIATANEIHFWDWSRREPFAVVKTASEMERVRLVRFDPLGHYLLTAIVNPSNSNIANTTYRLQWWDFTKFDLPEISNASVNVLVQNCKIYNDASCDISADGQLLAAFIPSSQRGFPDEGILAVYSLAPHNLGEMLYTKRFGPNAISVSLSPMGRYVMVGLASRRILLHPSTEHMVAQVFRLQQAHGGETSMRRVFNVLYPMPADQRRHVSINSARWLPEPGLGLAYGTNKGDLVICRPEALNSG
B2: MBP-AMBRA1^WD40 W99R (domain or fragment, human, UniProt Q9C0C7 1-204, looked up)
chain: MKVVPEKNAVRILWGRERGARAMGAQRLLQELVEDKTRWMKWEGKRVELPDSPRSTFLLAFSPDRTLLASTHVNHNIYITEVKTGKCVHSLIGHRRTPRCVTFHPTISGLIASGCLDGEVRIWDLHGGSESWFTDSNNAIASLAFHPTAQLLLIATANEIHFWDWSRREPFAVVKTASEMERVRLVRFDPLGHYLLTAIVNPSNSNIANTTYRLQWWDFTKFDLPEISNASVNVLVQNCKIYNDASCDISADGQLLAAFIPSSQRGFPDEGILAVYSLAPHNLGEMLYTKRFGPNAISVSLSPMGRYVMVGLASRRILLHPSTEHMVAQVFRLQQAHGGETSMRRVFNVLYPMPADQRRHVSINSARWLPEPGLGLAYGTNKGDLVICRPEALNSG
B3: MBP-AMBRA1^WD40 H75A/R96A (domain or fragment, human, UniProt Q9C0C7 1-204, looked up)
chain: MKVVPEKNAVRILWGRERGARAMGAQRLLQELVEDKTRWMKWEGKRVELPDSPRSTFLLAFSPDRTLLASTHVNANIYITEVKTGKCVHSLIGHRATPWCVTFHPTISGLIASGCLDGEVRIWDLHGGSESWFTDSNNAIASLAFHPTAQLLLIATANEIHFWDWSRREPFAVVKTASEMERVRLVRFDPLGHYLLTAIVNPSNSNIANTTYRLQWWDFTKFDLPEISNASVNVLVQNCKIYNDASCDISADGQLLAAFIPSSQRGFPDEGILAVYSLAPHNLGEMLYTKRFGPNAISVSLSPMGRYVMVGLASRRILLHPSTEHMVAQVFRLQQAHGGETSMRRVFNVLYPMPADQRRHVSINSARWLPEPGLGLAYGTNKGDLVICRPEALNSG
B4: MBP-AMBRA1^WD40 F57A (domain or fragment, human, UniProt Q9C0C7 1-204, looked up)
chain: MKVVPEKNAVRILWGRERGARAMGAQRLLQELVEDKTRWMKWEGKRVELPDSPRSTALLAFSPDRTLLASTHVNHNIYITEVKTGKCVHSLIGHRRTPWCVTFHPTISGLIASGCLDGEVRIWDLHGGSESWFTDSNNAIASLAFHPTAQLLLIATANEIHFWDWSRREPFAVVKTASEMERVRLVRFDPLGHYLLTAIVNPSNSNIANTTYRLQWWDFTKFDLPEISNASVNVLVQNCKIYNDASCDISADGQLLAAFIPSSQRGFPDEGILAVYSLAPHNLGEMLYTKRFGPNAISVSLSPMGRYVMVGLASRRILLHPSTEHMVAQVFRLQQAHGGETSMRRVFNVLYPMPADQRRHVSINSARWLPEPGLGLAYGTNKGDLVICRPEALNSG

The assay deals with His6-DDB1 (human, UniProt Q16531 1-1140). As to the kind of experiment: SEC + other: negative stain EM.
His6-DDB1, sequence (Q16531 whole entry): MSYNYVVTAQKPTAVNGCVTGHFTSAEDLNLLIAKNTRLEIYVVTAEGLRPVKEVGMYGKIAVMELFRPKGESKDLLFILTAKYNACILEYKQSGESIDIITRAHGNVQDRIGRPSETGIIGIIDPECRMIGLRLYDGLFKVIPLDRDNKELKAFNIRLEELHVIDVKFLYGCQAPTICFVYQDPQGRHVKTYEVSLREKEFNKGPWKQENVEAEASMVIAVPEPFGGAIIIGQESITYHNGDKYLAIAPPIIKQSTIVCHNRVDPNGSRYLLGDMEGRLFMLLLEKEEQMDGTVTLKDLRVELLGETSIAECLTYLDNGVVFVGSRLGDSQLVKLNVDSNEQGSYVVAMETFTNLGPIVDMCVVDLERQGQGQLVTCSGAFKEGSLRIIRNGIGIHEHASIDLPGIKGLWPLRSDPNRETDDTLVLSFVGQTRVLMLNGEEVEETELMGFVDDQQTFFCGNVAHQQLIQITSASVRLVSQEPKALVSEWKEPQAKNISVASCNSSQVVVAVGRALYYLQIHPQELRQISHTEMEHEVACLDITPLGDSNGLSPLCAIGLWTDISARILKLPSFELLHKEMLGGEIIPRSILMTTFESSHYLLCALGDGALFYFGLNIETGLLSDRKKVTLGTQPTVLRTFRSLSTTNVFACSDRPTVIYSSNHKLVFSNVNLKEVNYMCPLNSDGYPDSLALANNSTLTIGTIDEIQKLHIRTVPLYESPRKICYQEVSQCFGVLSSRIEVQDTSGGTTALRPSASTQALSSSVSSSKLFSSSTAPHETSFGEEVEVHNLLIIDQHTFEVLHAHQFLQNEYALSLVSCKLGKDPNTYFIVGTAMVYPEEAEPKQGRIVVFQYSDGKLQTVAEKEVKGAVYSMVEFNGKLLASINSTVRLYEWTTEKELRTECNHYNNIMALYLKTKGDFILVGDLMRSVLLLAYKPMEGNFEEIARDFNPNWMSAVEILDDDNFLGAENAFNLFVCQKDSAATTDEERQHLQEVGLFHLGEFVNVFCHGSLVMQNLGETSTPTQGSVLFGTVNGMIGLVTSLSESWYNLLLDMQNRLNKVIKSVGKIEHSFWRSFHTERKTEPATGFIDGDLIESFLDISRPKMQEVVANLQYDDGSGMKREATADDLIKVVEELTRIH
B1: the binding result is reported as “binds”.

Consider B2, for which the binding result is recorded as “binds”.

As for B3, the binding result was “binds”. Regarding B4, the binding result is listed as “binds”.
